# Laboratory results as given in IntAct's records for PubMed 26437117.
# B1: Synaptotagmin-1 (Rattus norvegicus (Rat)), P21707 (parent)
# chain: MVSASHPEALAAPVTTVATLVPHNATEPASPGEGKEDAFSKLKQKFMNELHKIPLPPWALIAIAIVAVLLVVTCCFCVCKKCLFKKKNKKKGKEKGGKNAINMKDVKDLGKTMKDQALKDDDAETGLTDGEEKEEPKEEEKLGKLQYSLDYDFQNNQLLVGIIQAAELPALDMGGTSDPYVKVFLLPDKKKKFETKVHRKTLNPVFNEQFTFKVPYSELGGKTLVMAVYDFDRFSKHDIIGEFKVPMNTVDFGHVTEEWRDLQSAEKEEQEKLGDICFSLRYVPTAGKLTVVILEAKNLKKMDVGGLSDPYVKIHLMQNGKRLKKKKTTIKKNTLNPYYNESFSFEVPFEQIQKVQVVVTVLDYDKIGKNDAIGKVFVGYNSTGAELRHWSDMLANPRRPIAQWHTLQVEEEVDAMLAVKK
# Variants of: B1
# Conditions: with stx1a_mouse Stx1a
row,Variant,effect of a mutation on the interaction
1,D178A;D230A;D232A;D309A;D363A;D365A,decreasing interaction strength
